Positions count from the first letter of the chain named. In names and notes the source's numbering stands. Each block holds one binder with its values, some of them ahead of it.
T1: His-CAL1_(1-160) (Drosophila melanogaster, UniProt Q9VEN2 1-160)
T1 sequence (looked up): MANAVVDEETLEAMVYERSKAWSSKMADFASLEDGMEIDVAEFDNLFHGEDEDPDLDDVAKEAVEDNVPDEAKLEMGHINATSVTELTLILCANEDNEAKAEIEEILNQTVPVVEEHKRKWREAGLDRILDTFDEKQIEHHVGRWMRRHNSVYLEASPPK

T2: CENP-A-GFP-LacI (Drosophila melanogaster, UniProt Q9V6Q2 1-225)
T2 sequence (looked up): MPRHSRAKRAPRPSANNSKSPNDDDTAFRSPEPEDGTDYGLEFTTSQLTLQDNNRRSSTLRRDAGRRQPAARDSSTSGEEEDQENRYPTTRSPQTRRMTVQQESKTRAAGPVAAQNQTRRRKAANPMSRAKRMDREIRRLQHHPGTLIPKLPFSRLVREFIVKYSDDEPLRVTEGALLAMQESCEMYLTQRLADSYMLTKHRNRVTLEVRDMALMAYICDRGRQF

B1: CAL1_(841-979) (untagged) (domain or fragment, Drosophila melanogaster, UniProt Q9VEN2 841-979, looked up)
chain: GGDPDCTVVTSTTGCEPPASERQEIPATIKITKRGILLHSPSAPEGASFTLTEQGLGKIIGERWARKYLKYHIGSRSFDSRHSVYYQPTPQLAAALSAPQDAQNIGNISGSSASDDDIFEQINRYGTVYSILENNSGDK
B2: His-CAL1_(1-160) F43R (domain or fragment)
chain: T1 sequence (looked up) with F43R
B3: CENP-C_(1264-1411) (tag cleaved) (domain or fragment, Drosophila melanogaster, UniProt Q9VHP9 1264-1411, looked up)
chain: GPVVFSTPLRDEQEEASTKLMQWLRGVGDAPPSASMSDENASVSSANELIFCQVDGIDYAFYNTKEKAMLGYMRFKPYQKRSMKQAKVHPLKLLVQFGEFNVETLAVGEEKEVHSVLRVGDMIEIDRGTRYSIQNAIDKVSVLMCIRS
B4: CENP-A_(101-225) (domain or fragment)
chain: QQESKTRAAGPVAAQNQTRRRKAANPMSRAKRMDREIRRLQHHPGTLIPKLPFSRLVREFIVKYSDDEPLRVTEGALLAMQESCEMYLTQRLADSYMLTKHRNRVTLEVRDMALMAYICDRGRQF
B5: CAL1_(F43R)-V5 (natural protein, Drosophila melanogaster, UniProt Q9VEN2 1-979, looked up)
chain: MANAVVDEETLEAMVYERSKAWSSKMADFASLEDGMEIDVAERDNLFHGEDEDPDLDDVAKEAVEDNVPDEAKLEMGHINATSVTELTLILCANEDNEAKAEIEEILNQTVPVVEEHKRKWREAGLDRILDTFDEKQIEHHVGRWMRRHNSVYLEASPPKYLPPHHNSISDESDESMHSIDTARYIQQSRRRNAHMTNKNMTTIKMYRKHSHKRDELRAKYAYGDEQEHRHHMQAVLLRRRERERQLAYLASTPMQCVYSSGHHMRRKNLRKRRINSWMFDSASSSEEDTSFGGCDCHSCRRHYALSRSVYQSCPYGRGQREYHHRQMASRTMHTMRRQHTFDMEMDLRPRLPENECSCCNSDRLCSNVIHIANSSTEEWVVENRSNHLTQETQEKTRKQKHQPMDARKVSHQPVCSKGHEQKPLSSKATSVSKLVLSKEKYMQMFDSESSDEDNALAKKGLLCCSDKKKGMTFPTPNAAGKITHPTSSAKKAIRKEARPNGLAQIQEEGPTATNSPIESTYLPVAHMKSVSIDGSSGTSATFESPAKKAPKRGIRETSPLNGNELQQLISTIPIADEKASSLMEKVDNCIGRESFDDRNKDFMHMENSSTKTAVEKSTKQKRVSGKKSEIPKSIITNNEILEKNSTETLSEKQVAAKAKKQSVRKTGATGKPSTSRLKKSEKTKTTSSVTSTSKLEQVREEESDVSSEVLAKPKPQCSTTASILKQGGDGASNSEDDLQIALAMSKATYKEEQQKRKKTKREPSNKQPQSPAEKSMTVFNNQSVACNSTALANDTACYRVLPKRRGVKRAAAVSTTEEKTATNSSSSPTSSLEEMGSPTGGDPDCTVVTSTTGCEPPASERQEIPATIKITKRGILLHSPSAPEGASFTLTEQGLGKIIGERWARKYLKYHIGSRSFDSRHSVYYQPTPQLAAALSAPQDAQNIGNISGSSASDDDIFEQINRYGTVYSILENNSGDK

How the values were obtained:
[1] = target: B3; assay: AUC
[2] = target: T3, CENP-A_(101-225)–H4 heterodimer (Drosophila melanogaster, UniProt Q9V6Q2 101-225; P84040 2-103); assay: pull-down
[3] = target: the molecule itself; assay: SEC-MALS
[4] = target: T1, His-CAL1_(1-160); assay: crystal structure
[5] = target: Histone H4 (Drosophila melanogaster, UniProt P84040 2-103); assay: crystal structure
[6] = target: T2, CENP-A-GFP-LacI; assay: LacO/LacI tethering assay in cells
[7] = target: T3, CENP-A_(101-225)–H4 heterodimer; assay: SEC-MALS

Binder: B1
stoichiometry N [1]: 1 CAL1 per CENP-C dimer

Binder: B2
binding result [2]: binds

Binder: B3
stoichiometry N [3]: 2

Binder: B4
binding result [4]: binds
binding result [5]: binds

Binder: B5
fold reduction of the level co-localising with CENP-A, against CAL1 WT [6]: 3 fold

stoichiometry N [7]: 1 CAL1 per CENP-A/H4 heterodimer
Binder: MANAVVDEETLEAMVYERSKAWSSKMADFASLEDGMEIDVAEFDNLFHGE (domain or fragment) [His-CAL1_(1-50)]

Reference: publication doi:10.1101/723213 (bioRxiv, 2019)
